Results on four substances are retold here after publication PMC10404244.

pKd: −log10 of the molar value.

Test [1] concerns the target tyrosinated microtubules polymerized from purified porcine brain tubulin (porcine) (UniProt P02550). The experiment in a line: single-molecule TIRF microscopy (landing rate, processive motility); tyrosinated and detyrosinated microtubules held by biotin-streptavidin in the same chamber, motors at single-molecule concentrations, 2 mM ATP, HP assay buffer pH 7.0.
The target is the same in test [2]. The experiment in a line: TIRF microscopy microtubule-binding assay (mean fluorescence intensity); tyrosinated and detyrosinated microtubules held in the same chamber, 2 mM AMP-PNP, HP assay buffer pH 7.0.
Test [3] shares this target. The experiment in a line: single-molecule TIRF microscopy (landing rate, dwell time); tyrosinated and detyrosinated microtubules held in the chamber, single molecules of motors, 2 mM ADP, HP assay buffer pH 7.0.
Test [4] has the same target. The experiment in a line: TIRF microscopy microtubule-binding assay (mean fluorescence intensity); tyrosinated and detyrosinated microtubules held in the same chamber, 2 mM ADP (Fig. 4C: 50 nM motor, 10 min), HP assay buffer pH 7.0.
For test [5] the target is unchanged. The experiment in a line: TIRF microscopy microtubule-binding assay (titration of fluorescence intensity); apparent; motor titrated 0.1–50 nM on held tyrosinated and detyrosinated microtubules, ADP; n = 160 MTs, N = 2.
Test [6] deals with detyrosinated microtubules: porcine brain tubulin treated with carboxypeptidase A (CPA) (porcine) (UniProt P02550). Described as above.
Test [7] shares this target. The experiment in a line: TIRF microscopy microtubule-binding assay (mean fluorescence intensity); tyrosinated and detyrosinated microtubules held in the same chamber, 2 mM ADP (Fig. 4C: 50 nM motor, 10 min), HP assay buffer pH 7.0.

Sequence of human KIF13B CAP-Gly fragment (a.a. 1685–1826), N-terminal sfGFP-StrepII (Q9NQT8 1685-1826): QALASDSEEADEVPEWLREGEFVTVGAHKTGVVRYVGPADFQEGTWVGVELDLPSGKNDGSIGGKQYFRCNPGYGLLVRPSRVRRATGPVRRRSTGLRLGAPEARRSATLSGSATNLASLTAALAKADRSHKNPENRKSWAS

The substance “full-length human KIF13B (wild type), C-terminal sfGFP-StrepII (from UniProt Q9NQT8 1-1826) (natural protein)” had a fold landing rate, tyrosinated over detyrosinated microtubules (ATP) in test [1] of 2 fold. In test [2], this substance had a fold binding (fluorescence intensity), tyrosinated over detyrosinated microtubules, AMP-PNP of 1.4 fold. In test [3], the fold dwell time, tyrosinated over detyrosinated microtubules (ADP) was found to be 1.3 fold and the fold landing rate, tyrosinated over detyrosinated microtubules (ADP) turned out to be 2 fold. Further, in test [4], the fold binding (fluorescence intensity), tyrosinated over detyrosinated microtubules, ADP worked out at 8 fold.

In turn, “full-length human KIF13B K414A, C-terminal sfGFP-StrepII (from UniProt Q9NQT8 1-1826) (natural protein)” came in with a fold landing rate, tyrosinated over detyrosinated microtubules (ATP) in test [1] of 2 fold. For the same substance, the values for the pKd in test [5] and in test [6] were 7.63 and 7.14, respectively. The fold dwell time, tyrosinated over detyrosinated microtubules (ADP) in test [3] worked out at 1.5 fold. This substance registered a fold landing rate, tyrosinated over detyrosinated microtubules (ADP) in test [3] of 2 fold. This substance displayed a fold binding (fluorescence intensity), tyrosinated over detyrosinated microtubules, ADP in test [4] of 2 fold. In addition, the fold motor density on microtubules over KIF13B (50 nM, ADP) in test [4] stood at 3 fold; in test [7], 11 fold.

In the case of “full-length human KIF13B V178Q, C-terminal sfGFP-StrepII (from UniProt Q9NQT8 1-1826) (natural protein)”, the fold landing rate, tyrosinated over detyrosinated microtubules (ATP) in test [1] is 2 fold.

Regarding “human KIF13B CAP-Gly fragment (a.a. 1685–1826), N-terminal sfGFP-StrepII (from UniProt Q9NQT8 1685-1826) (domain or fragment)”, in test [3], the fold landing rate, tyrosinated over detyrosinated microtubules (ADP) was determined as 14 fold and the fold lower dwell time than full-length KIF13B or KIF13B^Δtail (tyrosinated microtubules, ADP) was 2 to 3 fold.
